Experimental data from patent US20140286859A1.

Legend:
[1] = target: prostate specific membrane antigen (PSMA), full-length human (human) (UniProt Q04609); assay: fraction of radiolabeled mAb bound to excess cells, PSMA-3T3 (bracket: 3T3 control)
[2] = target: prostate specific membrane antigen (PSMA), full-length human (human) (UniProt Q04609); assay: fraction of radiolabeled mAb bound to excess cells, average of runs
[3] = target: prostate specific membrane antigen (PSMA), full-length human (human) (UniProt Q04609); assay: fraction of radiolabeled mAb bound to excess cells, PSMA-3T3
[4] = target: prostate specific membrane antigen (PSMA), full-length human (human) (UniProt Q04609); assay: cell-based or functional assay

Sequence of prostate specific membrane antigen (PSMA), full-length human (human) (Q04609 whole entry): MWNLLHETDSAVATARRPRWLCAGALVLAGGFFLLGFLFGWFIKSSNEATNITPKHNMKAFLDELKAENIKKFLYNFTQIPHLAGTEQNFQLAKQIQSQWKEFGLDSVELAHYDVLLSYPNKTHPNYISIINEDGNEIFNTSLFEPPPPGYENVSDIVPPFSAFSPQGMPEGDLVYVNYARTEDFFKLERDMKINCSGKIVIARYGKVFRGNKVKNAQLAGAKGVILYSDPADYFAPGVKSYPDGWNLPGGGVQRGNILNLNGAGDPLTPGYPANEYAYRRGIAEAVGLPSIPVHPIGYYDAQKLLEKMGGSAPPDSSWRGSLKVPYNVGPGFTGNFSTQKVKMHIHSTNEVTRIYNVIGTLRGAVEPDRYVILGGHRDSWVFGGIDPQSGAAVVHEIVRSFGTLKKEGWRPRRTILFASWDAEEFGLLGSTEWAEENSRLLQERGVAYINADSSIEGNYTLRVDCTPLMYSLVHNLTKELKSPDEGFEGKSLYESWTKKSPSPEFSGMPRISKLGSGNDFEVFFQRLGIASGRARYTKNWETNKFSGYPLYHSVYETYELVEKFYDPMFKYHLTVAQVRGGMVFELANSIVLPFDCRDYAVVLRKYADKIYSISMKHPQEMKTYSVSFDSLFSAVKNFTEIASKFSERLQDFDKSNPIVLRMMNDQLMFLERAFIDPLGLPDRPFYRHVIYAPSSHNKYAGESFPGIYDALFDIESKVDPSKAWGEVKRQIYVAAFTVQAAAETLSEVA

Immunoreactivity (%) [1]	Immunoreactivity (%), average [2]	Immunoreactivity (%) [3]	Substance	immunotoxin cytotoxicity (saporin-linked secondary antibody) on C4-2 cells, LD50 [4]	immunotoxin cytotoxicity (saporin-linked secondary antibody) on PSMA-3T3 cells, LD50 [4]
54.9%	56.7%	58.5%	^111In mJ591 (In-111 labeled CHX-A''-DTPA mJ591) (antibody)	–	–
–	–	–	mJ591 (antibody)	88.2 pM	89 pM
